Laboratory results reported in patent US20210079060A1 (ALETA BIOTHERAPEUTICS, published 2021).
Values joined by “and” are separate entries in the source; they are usually repeats but may differ in a detail not shown here. Equal values may be shown once. Read-outs that look alike come from different tables or passages of the source. One block for each binder: values may come before it.

Key:
Clec12A [1] = biological target: T1, Clec12A (human, UniProt Q5QGZ9 1-265); test: sandwich ELISA as for the other curves; the curve stays near 0.13 up to about 0.33 ug/ml and reaches only about 0.18 at 1 ug/ml (fit A 0.13, D 0.202)
T1 construct: whole, on cells; also called CLL-1; MICL
T1 sequence (looked up): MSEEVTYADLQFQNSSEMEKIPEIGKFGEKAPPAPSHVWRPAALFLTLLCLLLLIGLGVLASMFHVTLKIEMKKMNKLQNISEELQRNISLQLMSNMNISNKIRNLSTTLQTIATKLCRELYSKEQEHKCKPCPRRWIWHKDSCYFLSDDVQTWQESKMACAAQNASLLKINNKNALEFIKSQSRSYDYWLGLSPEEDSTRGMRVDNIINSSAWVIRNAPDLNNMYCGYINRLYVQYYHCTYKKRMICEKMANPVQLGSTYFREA

EGFR = biological target: T2, EGFR (UniProt P00533 25-1210, limits assumed); test: binding to EGFR positive cells (data not shown)
T2 construct: whole, on cells; also called EGFR positive cells; EGFR positive H292 cells

CD20 [2] = biological target: T3, CD20 (UniProt P11836 1-297, limits assumed); test: FACS on 293T cells transfected with CD20, FMC63-PE detection
T3 construct: whole, on cells; also called CD20 positive HEK293 cells
T3 sequence (looked up): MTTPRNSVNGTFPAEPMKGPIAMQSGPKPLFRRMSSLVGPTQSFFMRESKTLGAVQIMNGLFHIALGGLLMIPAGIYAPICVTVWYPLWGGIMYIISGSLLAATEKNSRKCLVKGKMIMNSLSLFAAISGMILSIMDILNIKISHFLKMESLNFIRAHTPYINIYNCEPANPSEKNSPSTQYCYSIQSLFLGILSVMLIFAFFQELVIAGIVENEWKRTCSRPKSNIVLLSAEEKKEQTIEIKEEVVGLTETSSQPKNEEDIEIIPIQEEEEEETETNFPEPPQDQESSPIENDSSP

CD20 [3] = biological target: T3, CD20; test: FACS on CD20 positive HEK293 cells, detected with FMC63-PE
CD20 [4] = biological target: T3, CD20; test: binding to CD20 positive HEK293 cells (method of the fit not stated); scFv-based construct #302 (Leu16 scFv), not the full mAb
Clec12A [5] = biological target: T1, Clec12A; test: sandwich ELISA: coated with FMC63, construct titrated, followed by Clec12A-bio, detected by HRP-SA
Clec12A [6] = biological target: T1, Clec12A; test: sandwich ELISA as for the other curves; the curve still rises at 1 ug/ml (about 1.33), no upper plateau; fit D 1.55
Clec12A [7] = biological target: T1, Clec12A; test: FACS on Clec12A-expressing U937 cells, % Binding against concentration, detected with FMC63-PE
Protocol: (§1) In addition, bispecific constructs were generated and assayed. […] These constructs were assayed for binding to U937 cells. […] Cells were then spun, washed twice, fixed, and analyzed by FACS.

Clec12A [8] = biological target: T1, Clec12A; test: sandwich ELISA: coated with FMC63, construct titrated (x-axis ug/ml), followed by Clec12A-bio, detected by HRP-SA
Clec12A [9] = biological target: T1, Clec12A; test: FACS on Clec12A expressing U937 cells, detected with FMC63-PE
Clec12A [10] = biological target: T1, Clec12A; test: FACS on Clec12A-expressing U937 cells, % Binding against concentration, detected with FMC63-PE; molar value with printed MW 43.7 kDa
Protocol: as §1

Clec12A [11] = biological target: T1, Clec12A; test: FACS on Clec12A expressing U937 cells, detected with a-His-PE
Clec12A [12] = biological target: T1, Clec12A; test: sandwich ELISA: coated with FMC63, construct titrated (x-axis ug/ml), followed by Clec12A-bio, detected by HRP-SA; remark: listed apart in the source

EC50 (Clec12A [1]): 0.698 µg/mL and 15 nM
B1: #331 (VHH)
VHH: QVQLQQSGGGLVQAGGSLTLSCAATGRTIDNGAMAWFRQAPGKQRELVAAINWSGGATFYTDSVKYRFTISRDNVRHTLDLQMTSLKPEDTTIYFCASRRGVDLRRNSYEYDYWGRGTLVTVSS
notes: also called anti CLEC12a VHH 2C2-G4Sx4-CD19 C-term mutant #2-His

binding result (EGFR): binds
B2: CD19 ECD N term mutant#-EGFR Fn3 (designed binder)
chain: PEEPLVVKVEEGDTAALWCLKGTSDGPTQQLTWSRESPLKPFLKYSLGVPGMGVHVRPNAVSLVISNVSQQMGGFYLCQPGPPSEKAWQPGWTVNVEGSGELFRWNVSDLGGLGCGLKNRSSEGPSSPSGKLMSPKLYVWAKDRPEIWEGEPPCLPPRDSLNQSLSRDMTVAPGSTLWLSCGVPPDSVSRGPLSWTHVHPKGPKSLLSLELKDDRPARDMWVMETGLVLPRATAQDAGKWYCHRGNVTTSYHLEITARPVSAHTPLRTGGWKGGGGSGGGGSGGGGSGGGGSVSDVPRDLEVVAATPTSLLISWFDYAVTYYRITYGETGGNSPVQEFTVPGWISTATISGLKPGVDYTITVYAVTDNSHWPFRSTPISTNYRTEIDKPPQHHHHHH
notes: Fusion protein; also called construct #230; CD19-Fn3/EGFR

EC50 (CD20 [2]): 0.0754 µg/mL and 1.3 nM | EC50 (CD20 [3]): 0.161 µg/mL and 2.78 nM | Kd (CD20 [4]): ~3 nM
B3: anti-CD20 scFv-CD19 D1+2 C term mutant #2 (scFv)
chain: QVKLQESGAELVKPGASVKMSCKASGYTFTSYNMHWVKQTPGQGLEWIGAIYPGNGDTSYNQKFKGKATLTADKSSSTAYMQLSSLTSEDSADYYCARSNYYGSSYWFFDVWGQGTTVTVSSASTGGGGSGGGGSGGGGSDIELTQSPTILSASPGEKVTMTCRASSSVNYMDWYQKKPGSSPKPWIYATSNLASGVPARFSGSGSGTSYSLTISRVEAEDAATYYCQQWSFNPPTFGGGTKLEIKRAAAGGGGSGGGGSGGGGSGGGGSPEEPLVVKVEEGDTAALWCLKGTSDGPTQQLTWSRESPLKPFLKYSLGVPGLGVHVRPDAISVVIRNVSQQMGGFYLCQPGPPSEKAWQPGWTVNVEGSGELFRWNVSDLGGLGCGLKNRSSEGPSSPSGKLMSPKLYVWAKDRPEIWEGEPPCLPPRDSLNQSLSRDLTVAPGSTLWLSCGVPPDSVSRGPLSWTHVHPKGPKSLLSLELKDDRPARDMWVMGTSLMLPRATAQDAGKWYCHRGNLTMSFHLEITARPSRHHHHHH
notes: scFv of anti-CD20 mAb Leu16 fused to a CD19 variant; also called Leu16scFv-CD19 construct

binding result (Clec12A [5]): no binding (tested: 1 ug/ml)
B4: #320 (VHH)
fusion protein, single chain: PEEPLVVKVEEGDTAVLPCLKGTSDGPTQQLTWSRESPLKPFLKYSLGVPGLGVHVRPDAISVVIRNVSQQMGGFYLCQPGPPSEKAWQPGWTVNVEGSGELFRWNVSDLGGLGCGLKNRSSEGPSSPSGKLMSPKLYVWAKDRPEIWEGEPPCLPPRDSLNQSLSQDLTMAPGSTLWLSCGVPPDSVSRGPLSWTHVHPKGPKSLLSLELKDDRPAREMIVDETGLLLPRATAQDAGKWYCSRGNVTTSYHLEITARPVKAHSDLRTGGWKGGGGSGGGGSGGGGSGGGGSAVQLQESGGGLVQAGGSLRLSCAASGSDRSINVMNWYRQAPGKQRELVAAITSGGTTNYAQSVKGRVTISRDSAKNTVYLQMNSLKPEDTAVYFCKADTRWGGMYWGPGTQVTVSSTSGPGGQGAEQKLISEEDLGAHHHHHHGAS
notes: also called construct #320; CD19 mutant #2-G4Sx4-anti CLEC12a VHH 1B11 myc His

EC50 (Clec12A [6]): 0.155 µg/mL and 3.33 nM
B5: #328 (VHH)
VHH: QVQLQESGGGLVQPGGSLRLSCAASGFTFNSYAMTWVRQAPGKGLEWVSDINSGGGSTNYADSVKGRFTISRDNAKNTLYLQMNSLKPEDTAVYYCATELRGSDYYRGPIREYAYWGQGTLVTVSS
notes: also called anti CLEC12a VHH 1H1-G4Sx4-CD19 C-term mutant #2-His

binding result (EGFR): binds
B6: CD19 ECD N term mutant#2-EGFR Fn3 (designed binder)
chain: PEEPLVVKVEEGDTAVLPCLKGTSDGPTQQLTWSRESPLKPFLKYSLGVPGLGVHVRPDAISVVIRNVSQQMGGFYLCQPGPPSEKAWQPGWTVNVEGSGELFRWNVSDLGGLGCGLKNRSSEGPSSPSGKLMSPKLYVWAKDRPEIWEGEPPCLPPRDSLNQSLSQDLTMAPGSTLWLSCGVPPDSVSRGPLSWTHVHPKGPKSLLSLELKDDRPAREMIVDETGLLLPRATAQDAGKWYCSRGNVTTSYHLEITARPVKAHSDLRTGGWKGGGGSGGGGSGGGGSGGGGSVSDVPRDLEVVAATPTSLLISWFDYAVTYYRITYGETGGNSPVQEFTVPGWISTATISGLKPGVDYTITVYAVTDNSHWPFRSTPISTNYRTEIDKPPQHHHHHH
notes: Fusion protein; also called CD19-Fn3/EGFR

binding result (EGFR): binds
B7: CD19 ECD N term mutant#3-EGFR Fn3 (designed binder)
chain: PEEPLVVKVEEGDTAALWCLKGTSDGPTQQLTWSRESPLKPFLKLSLGLPGMGVHMRPGAVSAVISNVSQQMGGFYLCQPGPPSEKAWQPGWTVNVEGSGELFRWNVSDLGGLGCGLKNRSSEGPSSPSGKLMSPKLYVWAKDRPEIWEGEPPCLPPRDSLNQSLSRDMTVAPGSTLWLSCGVPPDSVSRGPLSWTHVHPKGPKSLLSLELKDDRPARDMWVMGTSLILPRATAQDAGKYYCHRGNLTMSFHLEVVARPVKAHSDLRTGGWKGGGGSGGGGSGGGGSGGGGSVSDVPRDLEVVAATPTSLLISWFDYAVTYYRITYGETGGNSPVQEFTVPGWISTATISGLKPGVDYTITVYAVTDNSHWPFRSTPISTNYRTEIDKPPQHHHHHH
notes: Fusion protein; also called construct #229; CD19-Fn3/EGFR

EC50 (Clec12A [7]): 0.0449 µg/mL | EC50 (read off the curve) (Clec12A [7]): ~0.05 µg/mL | C of the 4-P fit (midpoint) (Clec12A [8]): 0.0168 µg/mL | EC50 (Clec12A [8]): 0.0168 µg/mL and 0.361 nM | EC50 (Clec12A [9]): 0.0723 µg/mL and 1.54 nM | EC50 (Clec12A [10]): 1.03 nM | EC50 (Clec12A [11]): 0.0446 µg/mL and 0.95 nM
B8: anti-CLEC12a VHH 2H3-CD19 D1+2 C term mutant #2 (VHH)
VHH: QVQLQESGGGLVQAGGSLRLSCVASGSIRSINVMGWYRQAPGKQRELVAACASDGNTYYADSVKGRFTISRDNAEKTVYLQMNNLKPDDTAVYYCDANSRGNYYSGQGTQVTVSS
notes: also called construct #330

B9: CD19 ECD N term mutant #2-G4Sx4-anti CLEC12a VHH 1B12-His (VHH)
chain: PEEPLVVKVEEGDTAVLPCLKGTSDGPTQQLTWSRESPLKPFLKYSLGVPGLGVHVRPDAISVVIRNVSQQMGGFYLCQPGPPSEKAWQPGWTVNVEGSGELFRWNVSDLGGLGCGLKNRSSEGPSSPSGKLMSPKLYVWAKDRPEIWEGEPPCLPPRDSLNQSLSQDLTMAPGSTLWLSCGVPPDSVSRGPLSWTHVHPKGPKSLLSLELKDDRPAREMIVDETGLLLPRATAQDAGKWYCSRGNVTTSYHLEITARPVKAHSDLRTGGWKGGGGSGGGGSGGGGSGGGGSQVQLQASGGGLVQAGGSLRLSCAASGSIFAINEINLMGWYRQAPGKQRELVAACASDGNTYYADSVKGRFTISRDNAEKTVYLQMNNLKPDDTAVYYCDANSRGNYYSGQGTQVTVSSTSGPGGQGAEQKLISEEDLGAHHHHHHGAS
notes: CD19 variant-VHH fusion; also called CD19-VHH1B12/Clec12A
EC50 (Clec12A [9]): 0.155 µg/mL and 3.3 nM | C of the 4-P fit (midpoint) (Clec12A [12]): 0.00403 µg/mL | EC50 (Clec12A [12]): 0.004 µg/mL and 0.086 nM | EC50 (Clec12A [11]): 0.233 µg/mL and 4.96 nM

EC50 (CD20 [2]): 0.379 µg/mL and 6.68 nM
B10: CD19 D1+2-anti-CD20 scFv (VH/VL) (scFv)
chain: PEEPLVVKVEEGDNAVLQCLKGTSDGPTQQLTWSRESPLKPFLKLSLGLPGLGIHMRPLAIWLFIFNVSQQMGGFYLCQPGPPSEKAWQPGWTVNVEGSGELFRWNVSDLGGLGCGLKNRSSEGPSSPSGKLMSPKLYVWAKDRPEIWEGEPPCLPPRDSLNQSLSQDLTMAPGSTLWLSCGVPPDSVSRGPLSWTHVHPKGPKSLLSLELKDDRPARDMWVMETGLLLPRATAQDAGKYYCHRGNLTMSFHLEITARPGGGGSGGGGSGGGGSGGGGSMAQVKLQESGAELVKPGASVKMSCKASGYTFTSYNMHWVKQTPGQGLEWIGAIYPGNGDTSYNQKFKGKATLTADKSSSTAYMQLSSLTSEDSADYYCARSNYYGSSYWFFDVWGQGTTVTVSSGGGGSGGGGSGGGGSDIELTQSPTILSASPGEKVTMTCRASSSVNYMDWYQKKPGSSPKPWIYATSNLASGVPARFSGSGSGTSYSLTISRVEAEDAATYYCQQWSFNPPTFGGGTKLEIKRAAAHHHHHH
notes: Wild type CD19 D1+D2 N-terminal to the Leu16 scFv; also called construct #83; wild type CD19 D1+D2 fusion protein
